Results: PMC9462685 (Science Advances, 2022)

B1: Sr35^Δ20 (domain or fragment)
chain: GEITLEKKVRKGIESLITELKLMQAVLSKVSKVPADQLDEGVKIWAGNVKELSYQMEDIVDAFMVRVGDGGESTNPKNRVKKILKKVKKLFKNGKDLHRISAALEEVVLQAKQLAELRQRYEQEMRDTSANTSVDPRMMALYTDVTELVGIEETRDKLINMLTEGDDWSKHPLKTISIVGFGGLGKTTLAKAAYDKIKVQFDCGAFVSVSRNPEMKKVLKDILYGLDKVKYENIHNAARDEKYLIDDIIEFLNDKRYLIVIDDIWNEKAWELIKCAFSKKSPGSRLITTTRNVSVSEACCSSEDDIYRMEPLSNDVSRTLFCKRIFSQEEGCPQELLKVSEEILKKCGGVPLAIITIASLLANKGHIKAKDEWYALLSSIGHGLTKNRSLEQMKKILLFSYYDLPSYLKPCLLYLSIFPEDREIRRARLIWRWISEGFVYSEKQDISLYELGDSYFNELVNRSMIQPIGIDDEGKVKACRVHDMVLDLICSLSSEENFVTILDDPRRKMPNSESKVRRLSIQNSKIDVDTTRMEHMRSVTVFSDNVVGKVLDISRFKVLRVLDLEGCHVSDVGYVGNLLHLRYLGLKGTHVKDLPMEIGKLQFLLTLDLRGTKIEVLPWSVVQLRRLMCLYVDYGMKLPSGIGNLTFLEVLDDLGLSDVDLDFVKELGRLTKLRVLRLDFHGFDQSMGKALEESISNMYKLDSLDVFVNRGLINCLSEHWVPPPRLCRLAFPSKRSWFKTLPSWINPSSLPLLSYLDITLFEVRSEDIQLLGTLPALVYLEIWNYSVFEEAHEVEAPVLSSGAALFPCATECRFIGIGAVPSMFPQGAAPRLKRLWFTFPAKWISSENIGLGMRHLPSLQRVVVDVISEGASREEADEAEAALRAAAEDHPNRPILDIW
B2: Sr35^R157A (receptor)
chain: MEIAMGAIGSLLPKLGELLIGEITLEKKVRKGIESLITELKLMQAVLSKVSKVPADQLDEGVKIWAGNVKELSYQMEDIVDAFMVRVGDGGESTNPKNRVKKILKKVKKLFKNGKDLHRISAALEEVVLQAKQLAELRQRYEQEMRDTSANTSVDPAMMALYTDVTELVGIEETRDKLINMLTEGDDWSKHPLKTISIVGFGGLGKTTLAKAAYDKIKVQFDCGAFVSVSRNPEMKKVLKDILYGLDKVKYENIHNAARDEKYLIDDIIEFLNDKRYLIVIDDIWNEKAWELIKCAFSKKSPGSRLITTTRNVSVSEACCSSEDDIYRMEPLSNDVSRTLFCKRIFSQEEGCPQELLKVSEEILKKCGGVPLAIITIASLLANKGHIKAKDEWYALLSSIGHGLTKNRSLEQMKKILLFSYYDLPSYLKPCLLYLSIFPEDREIRRARLIWRWISEGFVYSEKQDISLYELGDSYFNELVNRSMIQPIGIDDEGKVKACRVHDMVLDLICSLSSEENFVTILDDPRRKMPNSESKVRRLSIQNSKIDVDTTRMEHMRSVTVFSDNVVGKVLDISRFKVLRVLDLEGCHVSDVGYVGNLLHLRYLGLKGTHVKDLPMEIGKLQFLLTLDLRGTKIEVLPWSVVQLRRLMCLYVDYGMKLPSGIGNLTFLEVLDDLGLSDVDLDFVKELGRLTKLRVLRLDFHGFDQSMGKALEESISNMYKLDSLDVFVNRGLINCLSEHWVPPPRLCRLAFPSKRSWFKTLPSWINPSSLPLLSYLDITLFEVRSEDIQLLGTLPALVYLEIWNYSVFEEAHEVEAPVLSSGAALFPCATECRFIGIGAVPSMFPQGAAPRLKRLWFTFPAKWISSENIGLGMRHLPSLQRVVVDVISEGASREEADEAEAALRAAAEDHPNRPILDIW

Target: the molecule itself
Assay: SEC

| Protein | binding result |
| --- | --- |
| B1 | binds |
| B2 | binds |
